Test results as given in US20110312897A1, “CATHEPSIN L PROTEOLYTICALLY PROCESSES HISTONE H3 DURING MOUSE EMBRYONIC STEM CELL DIFFERENTIATION” (THE ROCKEFELLER UNIVERSITY, priority 2008, published 2011).

Tested on: rH3-HIS
Assay: H3 cleavage assay with recombinant cathepsins
Format: biochemical, mouse
Procedure: Extracts were incubated in buffer (10 mM HEPES, 10 mM KCl, 1.5 mM MgCl2, 0.34M sucrose, 10% glycerol, 5 mM β-mercaptoethanol, all final) with 0.1 μg/μl rH3-HIS (purified from E. coli) and incubated at 37° C. for 1-3 hours. Reactions were stopped by addition of 5×SDS sample buffer and boiling; results were analyzed by immunoblotting with HIS-HRP and/or H3.cs1 antibody. For MS analysis, reactions were quenched by addition of 0.1% (final) TFA. rCathepsin L (R&D Systems, # 1515-CY-010), rCathepsin B (R&D Systems Cat No. BAF965), and rCathepsin K (Calbiochem Cat. No. 342001) were purchased from commercial sources and tested in the assay with rH3-HIS.
To further validate the identification of Cathepsin L as an H3 protease, recombinant mouse Cathepsin L enzyme was tested in the H3 cleavage assay (FIG. 5). […] To further characterize the sites of proteolytic cleavage, the reaction products of rCathepsin L and rH3-HIS were analyzed by MS. […] Also observed in both reactions were five of the six complementary N-terminal peptides generated by rCathepsin L cleavage of H3 (left), and their abundances correlated, as expected, with that of their C-terminal counterparts. […] In addition, the relative abundances of the in vivo H3 cleavage sites and those produced by Cathepsin L in vitro are highly correlative. […] Taken together, the above data support the conclusion that Cathepsin L is capable of generating all of the histone H3.2 fragments observed at day three following induction of ESC differentiation by retinoic acid.
Other cathepsin family members were then tested in the H3 cleavage assay. rCathepsin B, one of the most abundant lysosomal proteases, and rCathepsin K, which is reported to have a significant preference for leucine in the P2 position of its substrates much like Cathepsin L, were chosen to be tested first (Cathepsin S also shares this preference but was not found to have significant expression in our ESC model). Following pre-activation the recombinant enzymes, Cathepsins B, K, and L were incubated with rH3-HIS at both pH 5.5. and pH 7.5, and the reactions were then analyzed by immunoblotting with both HIS and H3.cs1 antibodies.

[1] = pre-activated enzymes, pH 5.5 and pH 7.5

B1: recombinant mouse Cathepsin L: recombinant mouse Cathepsin L enzyme (R&D Systems, # 1515-CY-010) (protein)
chain: TPKFDQTFSAEWHQWKSTHRRLYGTNEEEWRRAIWEKNMRMIQLHNGEYSNGQHGFSMEMNAFGDMTNEEFRQVVNGYRHQKHKKGRLFQEPLMLKIPKSVDWREKGCVTPVKNQGQCGSCWAFSASGCLEGQMFLKTGKLISLSEQNLVDCSHAQGNQGCNGGLMDFAFQYIKENGGLDSEESYPYEAKDGSCKYRAEFAVANDTGFVDIPQQEKALMKAVATVGPISVAMDASHPSLQFYSSGIYYEPNCSSKNLDHGVLLVGYGYEGTDSNKNKYWLVKNSWGSEWGMEGYIKIAKDRDNHCGLATAASYPVVN
cleavage of recombinant histone H3 (pH 5.5 and pH 7.4): able to cleave recombinant histone H3 | generation of epitope recognized by H3.cs1 antibody (pH 5.5 and pH 7.4): created the specific epitope | rH3-HIS cleavage pattern [1]: cleaves rH3-HIS robustly

B2: Cathepsin K: recombinant Cathepsin K (Calbiochem Cat. No. 342001) (protein, UniProt P43235 115-329, looked up)
Cathepsin K: APDSVDYRKKGYVTPVKNQGQCGSCWAFSSVGALEGQLKKKTGKLLNLSPQNLVDCVSENDGCGGGYMTNAFQYVQKNRGIDSEDAYPYVGQEESCMYNPTGKAAKCRGYREIPEGNEKALKRAVARVGPVSVAIDASLTSFQFYSKGVYYDESCNSDNLNHAVLAVGYGIQKGNKHWIIKNSWGENWGNKGYILMARNKNNACGIANLASFPKM
H3.cs1 epitope production [1]: less abundant
